Data: patent US20150260731A1

Columns and labels:
[1] = target: Aβ1-40 monomer; assay: ELISA on coated antigen; antibody kept at 4° for 1 month
[2] = target: Aβ1-40 monomer; assay: sandwich ELISA on ERENNA, 19.3 capture, 82E1 detection
[3] = target: amyloid β-derived diffusible ligands (ADDLs), oligomers of Aβ1-42; assay: one-sided ELISA, plate coated with Aβ oligomers 50 pmol/well (FIG. 5A)
[4] = target: Aβ1-40 monomer; assay: ELISA on coated antigen; antibody kept at 40° for 1 month
[5] = target: amyloid β-derived diffusible ligands (ADDLs), oligomers of Aβ1-42; assay: sandwich ELISA on ERENNA, 19.3 on beads as capture, labelled 7305 as detection; ADDLs 1.67 pM in standards diluent
[6] = target: Aβ1-40 monomer; assay: KINEXA, equilibrium in solution
[7] = target: amyloid β-derived diffusible ligands (ADDLs), oligomers of Aβ1-42; assay: KINEXA, equilibrium in solution
[8] = target: Aβ1-40 monomer; assay: ELISA on coated antigen; antibody kept at 25° for 1 month
[9] = target: amyloid β-derived diffusible ligands (ADDLs), oligomers of Aβ1-42; assay: sandwich ELISA on ERENNA, 19.3 on beads as capture, labelled 7305 as detection; ADDLs 0.19 pM in standards diluent
[10] = target: amyloid β-derived diffusible ligands (ADDLs), oligomers of Aβ1-42; assay: competitive ELISA (ratio of the two EC50)
[11] = target: Aβ1-40 monomer; assay: BIACORE (SPR)
[12] = target: amyloid β-derived diffusible ligands (ADDLs), oligomers of Aβ1-42; assay: BIACORE (SPR)
[13] = target: amyloid β-derived diffusible ligands (ADDLs), oligomers of Aβ1-42; assay: sandwich ELISA on ERENNA, 19.3 on beads as capture, labelled 7305 as detection; ADDLs 5.00 pM in standards diluent
[14] = target: amyloid β-derived diffusible ligands (ADDLs), oligomers of Aβ1-42; assay: sandwich ELISA on ERENNA, 19.3 on beads as capture, labelled 7305 as detection; ADDLs 0.56 pM in standards diluent
[15] = target: amyloid β-derived diffusible ligands (ADDLs), oligomers of Aβ1-42; assay: ELISA, IgG2
[16] = target: Aβ1-40 monomer; assay: ELISA on coated antigen; antibody at 0 timepoint
[17] = target: Aβ1-40 monomer; assay: sandwich ELISA on ERENNA, 19.3 capture, 7305 detection
[18] = target: Aβ1-40 monomer; assay: one-sided ELISA, plate coated with Aβ1-40 100 pmol/well (FIG. 5A)
[19] = target: Aβ1-20; assay: solution-based binding assay, free antibody by ELISA, GRAFIT fit
Aβ1-20, sequence (peptide, as listed by the source): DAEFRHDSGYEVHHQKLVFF

Row | Substance | EC50 [1] [nM] | Aβ40 monomer Cross Reactivity [2] [%] | EC50 [3] [nM] | EC50 [4] [nM] | DE Mean (detected events mean) (detected events) [5] | Kd [6] [nM] | Kd [7] [nM] | EC50 [8] [nM] | DE Mean (detected events mean) (detected events) [9] | affinity for Aβ1-42 oligomers compared to Aβ1-40 monomers [10] | Kd [11] [nM] | Kd [12] [nM] | DE Mean (detected events mean) (detected events) [13] | DE Mean (detected events mean) (detected events) [14] | EC50 [15] [nM] | EC50 [16] [nM] | Aβ40 monomer Cross Reactivity [17] [%] | EC50 [18] [nM] | Kd [19] [nM]
1 | anti-ADDL antibody 19.3 | 16.3 | 0.04 | 1.6 | 88.8 | 1940 | 16.7 | 2.7 | 22.1 | 324 | 630 | 150 | 4.8 | 5580 | 691 | 0.8 | 10.1 | 0.02 | 4.3 | 
2 | WO-2 (antibody) |  |  |  |  |  |  |  |  |  |  |  |  |  |  |  |  |  |  | 19.3
